# Assay results as given in patent US20260209325A1 (SCHOLAR ROCK, published 2026).
# Numbering of substitutions follows the chain as printed.
# B1: Ab102 (antibody, human IgG4 S228P, kappa, V domains shown)
# VH: EVQLVESGGGLVQPGGSLRLSCAASGFTFTSYGMSWVRQAPGKGLELVASITGSGGETYYPDSVKGRFTISRDNAKNSLYLQMNSLRAEDTAVYYCARDLLVRFLEWSHYYGMDVWGQGTTVTVSS
# VL: DIVMTQSPLSLPVTPGEPASISCRSSQSLLHSSGHNFLHWYLQKPGQSPQLLIYETSNRAPGIPDRFSGSGSGTDFTLKISRVEAEDVGVYYCMQATQFPRPFGGGTKVEIKR
# B2: Ab105 (antibody, human IgG4 S228P, kappa, V domains shown)
# VH: EVQLVESGGGLVQPGGSLRLSCAASGSAFSSYGMSWVRQAPGKGLELVASIGGTGATYYPDSVKGRFTISRDNAKNSLYLQMNSLRAEDTAVYYCARDLLVRFLEWGHYYGMDVWGQGTTVTVSS
# VL: DIVMTQSPLSLPVTPGEPASISCRSSQSLLHSSGYNFLHWYLQKPGQSPQLLIYAASSRAPGIPDRFSGSGSGTDFTLKISRVEAEDVGVYYCMHGGQGPTFGGGTKVEIKR
# B3: Ab131 (antibody, human IgG4 S228P, kappa, V domains shown)
# VH: B2 VH
# VL: B2 VL with M94Q
# B4: Ab102 Fab (Fab, V domains shown)
# VH: B1 VH
# VL: DIVMTQSPLSLPVTPGEPASISCRSSQSLLHSSGHNFLHWYLQKPGQSPQLLIYETSNRAPGIPDRFSGSGSGTDFTLKISRVEAEDVGVYYCMQATQFPRPFGGGTKVEIK
# B5: Ab130 Fab (Fab, V domains shown)
# VH: B1 VH
# VL: B4 VL with M94Q
# notes: Fab of Ab130
# B6: Ab105 Fab (Fab, V domains shown)
# VH: B2 VH
# VL: DIVMTQSPLSLPVTPGEPASISCRSSQSLLHSSGYNFLHWYLQKPGQSPQLLIYAASSRAPGIPDRFSGSGSGTDFTLKISRVEAEDVGVYYCMHGGQGPTFGGGTKVEIK
# notes: Fab of Ab105
# B7: Ab131 Fab (Fab, V domains shown)
# VH: B2 VH
# VL: B6 VL with M94Q
# notes: Fab of Ab131
# B8: Fab fragment of Ab109 (Fab, V domains shown)
# VH: B2 VH with S27F, A28T, I51F, G52T, T54S, A56G, V101I, G107S
# VL: B4 VL with T56V, A60V, P61S, I63V, A96Q, F99Y, R101P, P102T
# notes: Fab of Ab109 (molecular weight 49.25 kDa); also called Ab109 Fab
# B9: Ab132 Fab (Fab, V domains shown)
# VH: B2 VH with S27F, A28T, I51F, G52T, T54S, A56G, V101I, G107S
# VL: B4 VL with T56V, A60V, P61S, I63V, M94Q, A96Q, F99Y, R101P, P102T
# notes: Fab of Ab132
# B10: Ab133 Fab (Fab, V domains shown)
# VH: B2 VH with S27F, A28T, I51F, G52T, T54S, A56G, T57A, V101I, G107S
# VL: B4 VL with T56V, A60V, P61S, I63V, M94Q, A96Q, F99Y, R101G, P102T
# notes: Fab of Ab133
# B11: Ab141 Fab (Fab, V domains shown)
# VH: B2 VH with S27F, A28T, I51F, G52T, T54S, A56G, T57A, V101I, G107S
# VL: B4 VL with T56V, A60V, P61S, I63V, A96Q, F99Y, R101G, P102T
# notes: Fab of Ab141
# B12: Ab112 Fab (Fab, V domains shown)
# VH: QVQLVQSGAEVKKPGASVKVSCKVSGGTFGIYAIHWVRQAPGKGLEWMGGTIPVFGTAIYAQKFQGRVTMTEDTSTDTAYMELSSLKSEDTAVYYCASLTGIAAAGTHPARGGMDVWGQGTTVTVSS
# VL: DIQMTQSPSSVSASVGDRVTITCRASPSISSYLAWYQQKPGKAPKLLIYAASRLQSGVPSRFSGSGSGTDFTLTISSLQPEDFANYYCQEYLSFPLTFGGGTKVEIK
# notes: Fab of Ab112; also called Ab112 Fab fragment
# B13: Ab123 Fab (Fab, V domains shown)
# VH: EVQLVESGGGLVQPGGSLRLSCAASGFTFSKYDMSWVRQAPGKGLELVASISSSGGTRYYPDSVKGRFTISRDNAKNSLYLQMNSLRAEDTAVYYCAKDLWVASPGYGMDVWGQGTTVTVSS
# VL: B1 VL with F37Y, E55L, T56G, N58I, I63V, T97L, Q98L, F99N, R101P, P102T
# notes: Fab of Ab123; also called Ab123 Fab fragment
# B14: Ab138 (antibody, human IgG4 S228P, kappa, V domains shown)
# VH: B1 VH with G55K
# VL: B1 VL with M94Q
# B15: Ab139 (antibody, human IgG4 S228P, kappa, V domains shown)
# VH: B2 VH with S27F, A28T, I51F, G52T, T54S, T57A, V101I, G107S
# VL: B1 VL with T56S, A60V, P61S, I63V, M94Q, A96Q, F99Y, R101P, P102T
# B16: Ab140 (antibody, human IgG4 S228P, kappa, V domains shown)
# VH: B2 VH with S27F, A28T, I51F, G52T, T54S, A56G, L99N, V101I, G107S
# VL: B1 VL with T56V, A60E, P61S, I63V, M94Q, A96Q, F99Y, R101P, P102T
# B17: Ab137 (antibody, human IgG4 S228P, kappa, V domains shown)
# VH: B2 VH with S27F, A28T, I51F, G52T, T54S, A56G, V101I
# VL: B1 VL with T56V, A60V, P61S, I63V, A96Q, F99Y, R101P, P102T
# B18: Ab120 (antibody, human IgG4 S228P, kappa, V domains shown)
# VH: QVQLVQSGAEVKKPGASVKVSCKVSGGTFSTFHIHWVRQAPGKGLEWMGGISAYSGSTIYAQKFQGRVTMTEDTSTDTAYMELSSLKSEDTAVYYCARARYVDDAFDIWGQGTMVTVSS
# VL: DIQMTQSPSSVSASVGDRVTITCRASEDISNFLAWYQQKPGKAPKLLIYAASDLLSGVPSRFSGSGSGTDFTLTISSLQPEDFANYYCQKYISAPSFGGGTKVEIKR
# Target: T1, recombinant human latent myostatin (human, UniProt O14793 24-375, biotinylated (in the Octet pH assay only))
# Assay: cell-based or functional assay
row,Binder,mTLL2 IC50
1,B1,0.346 nM
2,B2,0.25 nM
3,B3,0.208 nM

# Target: T2, human pro-myostatin (human, UniProt O14793 24-375, biotinylated (in the SPR assay))
# T2 construct: Disulfide-linked homodimer; also called proGDF8 (human)
# Assay: Fab KD, summary Table 11; method and antigen not stated there
row,Binder,Kd
1,B4,44.4 nM
2,B5,53.8 nM
3,B6,21.9 nM
4,B7,17.4 nM
5,B8,39.5 nM
6,B9,61.4 nM
7,B10,23 nM
8,B11,19 nM
9,B12,6.19 nM
10,B13,5.51 nM

# Target: T2, human pro-myostatin
# Assay: cell-based or functional assay
row,Binder,IC50 (nM) Pro + Furin
1,B1,0.211 nM
2,B2,0.356 nM

# Target: T1, recombinant human latent myostatin
# Assay: cell-based or functional assay
# Remark: another data set of the same source
row,Binder,IC50 (nM) Latent + mTLL2
1,B1,0.162 nM
2,B2,0.25 nM

# Target: T2, human pro-myostatin
# Assay: SPR Biacore 8K, biotin-antigen captured
Binder,Kd,koff,kon
B1,0.058 nM,0.000376 s⁻¹,6.49e+06 M⁻¹ s⁻¹
B14,0.11 nM,0.000577 s⁻¹,5.27e+06 M⁻¹ s⁻¹
B2,0.051 nM,0.000247 s⁻¹,4.89e+06 M⁻¹ s⁻¹
B15,0.121 nM,0.0023 s⁻¹,1.9e+07 M⁻¹ s⁻¹
B16,0.109 nM,0.000711 s⁻¹,6.53e+06 M⁻¹ s⁻¹

# Target: T3, cyno pro-myostatin (cynomolgus monkey, Biotinylated for capture in the SPR assay (site not stated). The native form is a disulfide-linked homodimer, partly furin-cleaved; one chain is given.)
# T3 construct: also called proGDF8 (cynomolgus); cynomolgus monkey pro-myostatin
# Assay: SPR Biacore 8K, biotin-antigen captured
Binder,Kd,koff,kon
B1,0.049 nM,0.000335 s⁻¹,6.8e+06 M⁻¹ s⁻¹
B2,0.044 nM,0.000233 s⁻¹,5.26e+06 M⁻¹ s⁻¹

# Target: T4, murine pro-myostatin (mouse, UniProt O08689 25-376, biotinylated (in the SPR assay))
# T4 construct: also called proGDF8 (mouse); mouse pro-myostatin
# Assay: SPR Biacore 8K, biotin-antigen captured
Binder,Kd,koff,kon
B1,0.082 nM,0.0005 s⁻¹,6.11e+06 M⁻¹ s⁻¹
B2,0.046 nM,0.000276 s⁻¹,5.99e+06 M⁻¹ s⁻¹

# Target: T1, recombinant human latent myostatin
# Assay: BLI (Octet Red384): streptavidin biosensors loaded with biotinylated human latent myostatin, antibody association 300 s, dissociation in PBS at pH 7.4 or pH 5.5
# Description: (§1) Binding was performed at pH 7.4 and dissociation at pH 5.5 in an Octet Red384@assay. Streptavidin biosensors were baselined in 1x kinetics buffer (KB) (Sartorius) for one minute, then loaded with 100 nM biotinylated human latent myostatin for five minutes, followed by another baseline step of one minute in 1x KB. Binding of test antibodies was performed for five minutes and then dissociation was performed in PBS at either pH 7.4 or pH 5.5 for five minutes. Analysis was performed using a partial fit, in which full dissociation was projected. Kd at pH 5.5 was divided by Kd at pH 7.4 to calculate pH sensitivity.
row,Binder,fold difference in off-rate (Kd at pH 5.5 / Kd at pH 7.4)
1,B14,7.9 fold
2,B17,26 fold
3,B15,16.3 fold
4,B16,10.4 fold

# Target: T2, human pro-myostatin
# Assay: Ab KD, summary Table 11; method and antigen not stated there
row,Binder,Kd
1,B1,0.329 nM
2,B2,0.229 nM
3,B3,0.155 nM

# Target: T1, recombinant human latent myostatin
# Assay: BLI Octet Red384, biotin human latent myostatin on streptavidin tips
# Description: as §1
row,Binder,fold difference in off-rate (Kd at pH 5.5 / Kd at pH 7.4)
1,B1,9.3 fold
2,B2,0.8 fold
3,B3,0.9 fold

# Target: T4, murine pro-myostatin
# Assay: plate binding assay, OD 450 nm, antibody titrated 0.0003 to 100 nM, panel 'Mu-Pro-GDF-8 Plate 2' (method not described in the text)
row,Binder,binding result
1,B18,binds

# Target: mouse GDF-11 (mouse, UniProt Q9Z1W4 297-405, limits assumed)
# Sequence (Q9Z1W4 297-405 limits assumed): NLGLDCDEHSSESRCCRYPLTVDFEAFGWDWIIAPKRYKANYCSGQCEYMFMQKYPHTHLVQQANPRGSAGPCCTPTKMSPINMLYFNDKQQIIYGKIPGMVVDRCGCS
# Assay: plate binding assay, OD 450 nm, one antibody concentration that is not given, on Mu-GDF-11 (method not described in the text)
row,Binder,binding result
1,B18,no binding

# Target: human GDF-11 (human, UniProt O95390 299-407, limits assumed)
# Sequence (O95390 299-407 limits assumed): as the sequence (Q9Z1W4 297-405 limits assumed) above
# Assay: plate binding assay, OD 450 nm, one antibody concentration that is not given, on Hu-GDF-11 (method not described in the text)
row,Binder,binding result
1,B18,no binding
